Legend:
[1] = target: exoPB4SF-Q5C mutant (Photobacterium sp. FC615); assay: SEC; Superdex 200 10/300 GL, 10 mM Tris-HCl, 100 mM NaCl, pH 8.0, with or without 5 mM DTT; detection at 280 nm; monomer to dimer
[2] = target: CS/DS 4-O-endosulfatase endoVB4SF from Vibrio sp. FC509 (Vibrio sp. FC509); assay: as above

stoichiometry N [1]	stoichiometry N [2]	Substance
2	–	exoPB4SF-Q5C mutant (enzyme)
–	2	CS/DS 4-O-endosulfatase endoVB4SF from Vibrio sp. FC509 (enzyme)

From paper PMC6581707
